Usually Kd stands for the constant that tells how readily two partners part at equilibrium. In general, IC50 refers to the concentration that inhibits the measured activity by half. Lower therefore signals higher potency. What is called EC50 is the concentration that produces a half-maximal response. A higher EC50 goes with a less potent agent.

For assay [1], the target named is T1, human EGFR on cells (A431, NCI-H292, NCI-H322, NCI-H441) (human, UniProt P00533 25-1210). Put plainly: cell-based or functional assay.
The target in assay [2] is T2, recombinant human extracellular domain of EGFR fused to an IgG1 Fc (human, UniProt P00533 25-645).
T2 construct: Bought (R&D Systems); captured on anti-human Fc IgG for SPR; also called EGFR-Fc
Put plainly: SPR (ProteOn), EGFR-Fc captured on anti-human Fc IgG. On the procedure: Select EGFR-binding FN3 domains were screened to identify those with slow off-rates (koff) in binding to EGFR-Fc on a ProteOn XPR-36 instrument (Bio-Rad) to facilitate selection of high affinity binders. Goat anti-human Fc IgG (R&D systems), at a concentration of 5 μg/mL, was directly immobilized via amine coupling (at pH 5.0) on all 6 ligand channels in horizontal orientation on the chip with a flow rate of 30 μL/min in PBS containing 0.005% Tween-20. The immobilization densities averaged about 1500 Response Units (RU) with less than 5% variation among different channels. EGFR-Fc was captured on the anti-human Fc IgG surface to a density around 600 RU in vertical ligand orientation. All tested FN3 domains were normalized to a concentration of 1 μM and tested for their binding in horizontal orientation. All 6 analyte channels were used for the FN3 domains to maximize screening throughput. The dissociation phase was monitored for 10 minutes at a flow rate of 100 μL/min. The inter-spot binding signals were used as references to monitor non-specific binding between analytes and the immobilized IgG surface, and were subtracted from all binding responses. The processed binding data were locally fit to a 1:1 simple Langmuir binding model to extract the koff for each FN3 domain binding to captured EGFR-Fc.
Binding affinity of selected EGFR-binding FN3 domains to recombinant EGFR extracellular domain was further characterized by surface Plasmon resonance methods using a Proteon Instrument (BioRad). The assay set-up (chip preparation, EGFR-Fc capture) was similar to that described above for off-rate analysis. Selected EGFR binding FN3 domains were tested at 1 μM concentration in 3-fold dilution series in the horizontal orientation. A buffer sample was also injected to monitor the baseline stability.

The target in assay [3] is T1, human EGFR on cells (A431, NCI-H292, …). As to the kind of experiment: A431 cell competition with biotinylated EGF. On the procedure:
A431 cells were plated at 5,000/well in opaque black 96-well plates and allowed to attach overnight at 37° C., in a humidified 5% CO₂ atmosphere. […] Cells were washed 3 times with 150 μL/well of FACS stain buffer. Cells were incubated with 50 μL/well of streptavidin-phycoerythrin conjugate (Invitrogen) diluted 1:100 in FACS stain buffer for 20 minutes at room temperature. Cells were washed 3 times with 150 μL/well of FACS stain buffer, after which wells were filled with 100 μL of FACS stain buffer and read for fluorescence at 600 nm using an Acumen eX3 reader. Data were plotted as the raw fluorescence signal against the logarithm of FN3 domain molar concentration and fitted to a sigmoidal dose-response curve with variable slope using GraphPad Prism 4 (GraphPad Software) to calculate IC₅₀ values.

The target is the same in assay [4]. Put plainly: A431 cell binding, anti-His-Alexa488 fluorescence. On the procedure: A431 cells were plated at 5,000/well in opaque black 96-well plates and allowed to attach overnight at 37° C., in a humidified 5% CO₂ atmosphere. […] Supernatant was removed and cells were washed 3 times with 150 μL/well of FACS stain buffer. Cells were incubated with 50 μL/well of anti-penta His-Alexa488 antibody conjugate (Qiagen) diluted 1:100 in FACS stain buffer for 20 minutes at room temperature. Cells were washed 3 times with 150 μL/well of FACS stain buffer, after which wells were filled with 100 μL of FACS stain buffer and read for fluorescence at 488 nm using an Acumen eX3 reader. Data were plotted as raw fluorescence signal against the logarithm of the FN3 domain molar concentration and fitted to a sigmoidal dose-response curve with variable slope using GraphPad Prism 4 (GraphPad Software) to calculate EC₅₀ values.

Assay [5] shares this target. Put plainly: cell-based or functional assay. This is another data set of the same source.
Assay [6] addresses human c-Met on cells (NCI-H441, NCI-H292, U87-MG) (human, UniProt P08581 25-1390). As to the kind of experiment: cell-based or functional assay.

Chain of human c-Met on cells (NCI-H441, NCI-H292, U87-MG) (P08581 other isoform, or with tags, fused parts or gaps limits assumed): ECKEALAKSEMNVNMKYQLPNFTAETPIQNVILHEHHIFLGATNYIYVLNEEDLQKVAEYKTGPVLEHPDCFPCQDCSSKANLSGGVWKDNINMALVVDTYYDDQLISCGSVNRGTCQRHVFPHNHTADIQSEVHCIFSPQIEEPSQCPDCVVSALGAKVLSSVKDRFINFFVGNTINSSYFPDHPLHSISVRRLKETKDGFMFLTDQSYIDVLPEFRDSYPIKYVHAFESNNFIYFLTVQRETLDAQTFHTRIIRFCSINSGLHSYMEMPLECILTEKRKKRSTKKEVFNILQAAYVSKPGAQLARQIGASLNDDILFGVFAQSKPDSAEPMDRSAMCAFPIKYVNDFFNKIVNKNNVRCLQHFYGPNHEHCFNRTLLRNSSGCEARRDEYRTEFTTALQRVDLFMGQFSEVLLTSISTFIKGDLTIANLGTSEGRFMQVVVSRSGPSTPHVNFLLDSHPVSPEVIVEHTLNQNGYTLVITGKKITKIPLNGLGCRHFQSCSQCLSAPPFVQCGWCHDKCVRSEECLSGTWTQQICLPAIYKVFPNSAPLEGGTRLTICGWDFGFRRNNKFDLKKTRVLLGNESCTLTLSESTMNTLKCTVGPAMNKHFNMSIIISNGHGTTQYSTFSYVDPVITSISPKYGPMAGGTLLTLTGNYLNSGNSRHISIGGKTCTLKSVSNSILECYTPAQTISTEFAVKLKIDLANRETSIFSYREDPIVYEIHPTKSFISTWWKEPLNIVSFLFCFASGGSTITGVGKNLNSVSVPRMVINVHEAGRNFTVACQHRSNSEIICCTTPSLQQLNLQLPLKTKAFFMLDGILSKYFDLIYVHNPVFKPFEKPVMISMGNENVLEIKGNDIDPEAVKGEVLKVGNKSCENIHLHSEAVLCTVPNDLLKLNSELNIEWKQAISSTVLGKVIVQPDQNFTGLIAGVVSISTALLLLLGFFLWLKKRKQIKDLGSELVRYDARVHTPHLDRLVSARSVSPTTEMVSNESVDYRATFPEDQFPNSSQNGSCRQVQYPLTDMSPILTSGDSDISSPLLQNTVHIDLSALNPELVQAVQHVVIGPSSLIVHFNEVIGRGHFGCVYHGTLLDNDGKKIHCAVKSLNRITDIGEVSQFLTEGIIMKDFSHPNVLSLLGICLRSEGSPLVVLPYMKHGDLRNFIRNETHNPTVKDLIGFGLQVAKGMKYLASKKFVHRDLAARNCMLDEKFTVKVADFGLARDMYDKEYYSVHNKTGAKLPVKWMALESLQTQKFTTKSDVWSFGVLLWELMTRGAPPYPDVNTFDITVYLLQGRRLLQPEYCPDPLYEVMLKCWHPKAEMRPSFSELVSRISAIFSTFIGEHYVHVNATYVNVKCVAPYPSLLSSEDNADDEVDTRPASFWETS

B1: P54CR4-31 (designed binder, not shown: small tags and cut ends)
chain: LPAPKNLVVSEVTEDSLRLSWTAPDAAFDSFLIQYQESEKVGEAINLTVPGSERSYDLTGLKPGTEYTVSIYGVLGSYVFEHDVMLPLSAEFTT
As for B1, in assay [1], the “NCI-H292 Growth IC50” value turned out to be 1150 nM, the “NCI-H322 Growth IC50” value was more than 3070 nM and the “Phospho-EGFR IC50 (A431 cells)” value came to 179 nM. Further, the Kd in assay [2] is 0.383 nM. The IC50 in assay [3] came out at 55 nM.

B2: P53A1R5-17 (designed binder, not shown: small tags and cut ends)
chain: LPAPKNLVVSEVTEDSLRLSWADPHGFYDSFLIQYQESEKVGEAINLTVPGSERSYDLTGLKPGTEYTVSIYGVHNVYKDTNMRGLPLSAEFTT
With B2, in assay [4], it took 4 nM to reach a half-maximal effect (EC50). For the same molecule, in assay [1], the “NCI-H292 Growth IC50” value was found to be 86 nM, the “NCI-H322 Growth IC50” value amounted to 65 nM and the “Phospho-EGFR IC50 (A431 cells)” value was more than 2500 nM. In addition, the Kd in assay [2] came out at 1.89 nM. This molecule also showed an IC50 in assay [3] of 9.8 nM.

B3: P54AR4-48 (designed binder, not shown: small tags and cut ends)
chain: LPAPKNLVVSEVTEDSLRLSWDDPRGFYESFLIQYQESEKVGEAINLTVPGSERSYDLTGLKPGTEYTVSIYGVHNVYKDTNMRGLPLSAEFTT
B3 registered an EC50 in assay [4] of 12 nM. Besides, the “Phospho-EGFR IC50 (A431 cells)” value in assay [1] was determined as 170 nM. For the same molecule, the Kd in assay [2] worked out at 7.78 nM. For the same molecule, the IC50 in assay [3] was 9.8 nM.

B4: P54AR4-83 (designed binder, not shown: small tags and cut ends)
chain: LPAPKNLVVSEVTEDSLRLSWDDPWAFYESFLIQYQESEKVGEAINLTVPGSERSYDLTGLKPGTEYTVSIYGVHNVYKDTNMRGLPLSAEFTT
B4 gave an EC50 in assay [4] of 2.2 nM. In addition, in assay [1], the “NCI-H292 Growth IC50” value was 5.9 nM, the “NCI-H322 Growth IC50” value came out at 9.2 nM and the “Phospho-EGFR IC50 (A431 cells)” value worked out at 18 nM. Also, the Kd in assay [2] was determined as 0.255 nM. Further, in assay [3], the IC50 is 1.8 nM.

B5: P54AR4-73 (designed binder, not shown: small tags and cut ends)
chain: LPAPKNLVVSEVTEDSLRLSWTWPYADLDSFLIQYQESEKVGEAINLTVPGSERSYDLTGLKPGTEYTVSIYGVHNVYKDTNMRGLPLSAEFTT
notes: also called P54AR4-37
In assay [4], B5 showed an EC50 of 9.4 nM. Also, in assay [1], the “NCI-H292 Growth IC50” value was found to be 83 nM, the “NCI-H322 Growth IC50” value stood at 73 nM and the “Phospho-EGFR IC50 (A431 cells)” value stood at 141 nM. For the same molecule, the Kd in assay [2] is 0.197 nM. The molecule further showed a half-maximal inhibitory concentration (IC50) in assay [3] of 4.6 nM.

B6: P54AR4-17 (designed binder, not shown: small tags and cut ends)
chain: LPAPKNLVVSEVTEDSLRLSWTYDRDGYDSFLIQYQESEKVGEAINLTVPGSERSYDLTGLKPGTEYTVSIYGVHNVYKDTNMRGLPLSAEFTT
B6: the EC50 in assay [4] is 16 nM. For the same molecule, the “Phospho-EGFR IC50 (A431 cells)” value in assay [1] was determined as 184 nM. Further, in assay [2], the Kd was determined as 9.62 nM. This molecule also showed an IC50 in assay [3] of 21 nM.

B7: ECB147v3-PEG24 (designed binder)
chain: MLPAPKNLVVSEVTEDSARLSWDDPWAFYESFLIQYQESEKVGEAIVLTVPGSERSYDLTGLCPGTEYTVSIYGVHNVYKDTNMRGLPLSAIFTTAPCPAPAPAPLPAPKNLVVSRVTEDSARLSWTAPDAAFDSFWIRYFEFLGSGEAIVLTVPGSERSYDLTGLCPGTEYVVNIMSVKGGSISPPLSAIFTTAPCPAPAPAPLAEAKVLANRELDKYGVSDYYKNLINNAKTVEGVKALLDEILAALP
modifications: PEG24-maleimide on the engineered cysteines
For B7, in assay [5], the “IC50 of inhibition of EGF-stimulated EGFR phosphorylation, NCI-H292 cells” value was determined as 1.6 nM. For the same molecule, in assay [6], the “IC50 of inhibition of HGF-stimulated c-Met phosphorylation, NCI-H292 cells” value worked out at 0.5 nM.

B8: ECB147v6-PEG24 (designed binder)
chain: MLPAPKNLVVSEVTEDSARLSWDDPWAFYESFLIQYQESEKVGEAIVLTVPGSERSYDLTGLCPGTEYTVSIYGVHNVYKDTNMRGLPLSAIFTTAPAPAPAPAPLPAPKNLVVSRVTEDSARLSWTAPDAAFDSFWIRYFEFLGSGEAIVLTVPGSERSYDLTGLKPGTEYVVNIMSVKGGSISPPLSAIFTTAPAPAPAPAPLAEAKVLANRELDKYGVSDYYKNLINNAKTVEGVKALLDEILAALP
modifications: PEG24-maleimide on the engineered cysteine
In the case of B8, in assay [5], the “IC50 of inhibition of EGF-stimulated EGFR phosphorylation, NCI-H292 cells” value amounted to 1.4 nM. The “IC50 of inhibition of HGF-stimulated c-Met phosphorylation, NCI-H292 cells” value in assay [6] was 0.4 nM.

B9: ECB147v7-PEG24 (designed binder)
chain: MLPAPKNLVVSEVTEDSARLSWDDPWAFYESFLIQYQESEKVGEAIVLTVPGSERSYDLTGLKPGTEYTVSIYGVHNVYKDTNMRGLPLSAIFTTAPCPAPAPAPLPAPKNLVVSRVTEDSARLSWTAPDAAFDSFWIRYFEFLGSGEAIVLTVPGSERSYDLTGLKPGTEYVVNIMSVKGGSISPPLSAIFTTAPCPAPAPAPLAEAKVLANRELDKYGVSDYYKNLINNAKTVEGVKALLDEILAALP
modifications: PEG24-maleimide on the engineered cysteines
B9: the “IC50 of inhibition of EGF-stimulated EGFR phosphorylation, NCI-H292 cells” value in assay [5] is 1.4 nM. The “IC50 of inhibition of HGF-stimulated c-Met phosphorylation, NCI-H292 cells” value in assay [6] was determined as 0.5 nM.

B10: ECB147v5-PEG24 (designed binder)
chain: MLPAPKNLVVSEVTEDSARLSWDDPWAFYESFLIQYQESEKVGEAIVLTVPGSERSYDLTGLCPGTEYTVSIYGVHNVYKDTNMRGLPLSAIFTTAPAPAPAPAPLPAPKNLVVSRVTEDSARLSWTAPDAAFDSFWIRYFEFLGSGEAIVLTVPGSERSYDLTGLCPGTEYVVNIMSVKGGSISPPLSAIFTTAPAPAPAPAPLAEAKVLANRELDKYGVSDYYKNLINNAKTVEGVKALLDEILAALP
modifications: PEG24-maleimide on the engineered cysteines
On to B10, for which the “IC50 of inhibition of EGF-stimulated EGFR phosphorylation, NCI-H292 cells” value in assay [5] was 0.9 nM. Also, the “IC50 of inhibition of HGF-stimulated c-Met phosphorylation, NCI-H292 cells” value in assay [6] was found to be 0.4 nM.

(Values after patent US20210301025A1 (published 2021).)
